This note sets out measurements from paper PMC7841527.

In experiment [1] the target is FLAG-tagged HDAC4 p.Glu247Gly variant (human). As to the kind of experiment: co-IP; HEK293 cells co-transfected with FLAG-HDAC4 (native or variant) and HA-14-3-3β; ~48 h post-transfection cleared extracts immunoprecipitated with anti-FLAG antibody; western blot with anti-HA; blots quantified with ImageJ relative to HDAC4 and 14-3-3β loading controls. A general note: Immunoblotting shows a protein as a band on a membrane.
Sequence of FLAG-tagged HDAC4 p.Glu247Gly variant (human) (P56524 whole entry E247G): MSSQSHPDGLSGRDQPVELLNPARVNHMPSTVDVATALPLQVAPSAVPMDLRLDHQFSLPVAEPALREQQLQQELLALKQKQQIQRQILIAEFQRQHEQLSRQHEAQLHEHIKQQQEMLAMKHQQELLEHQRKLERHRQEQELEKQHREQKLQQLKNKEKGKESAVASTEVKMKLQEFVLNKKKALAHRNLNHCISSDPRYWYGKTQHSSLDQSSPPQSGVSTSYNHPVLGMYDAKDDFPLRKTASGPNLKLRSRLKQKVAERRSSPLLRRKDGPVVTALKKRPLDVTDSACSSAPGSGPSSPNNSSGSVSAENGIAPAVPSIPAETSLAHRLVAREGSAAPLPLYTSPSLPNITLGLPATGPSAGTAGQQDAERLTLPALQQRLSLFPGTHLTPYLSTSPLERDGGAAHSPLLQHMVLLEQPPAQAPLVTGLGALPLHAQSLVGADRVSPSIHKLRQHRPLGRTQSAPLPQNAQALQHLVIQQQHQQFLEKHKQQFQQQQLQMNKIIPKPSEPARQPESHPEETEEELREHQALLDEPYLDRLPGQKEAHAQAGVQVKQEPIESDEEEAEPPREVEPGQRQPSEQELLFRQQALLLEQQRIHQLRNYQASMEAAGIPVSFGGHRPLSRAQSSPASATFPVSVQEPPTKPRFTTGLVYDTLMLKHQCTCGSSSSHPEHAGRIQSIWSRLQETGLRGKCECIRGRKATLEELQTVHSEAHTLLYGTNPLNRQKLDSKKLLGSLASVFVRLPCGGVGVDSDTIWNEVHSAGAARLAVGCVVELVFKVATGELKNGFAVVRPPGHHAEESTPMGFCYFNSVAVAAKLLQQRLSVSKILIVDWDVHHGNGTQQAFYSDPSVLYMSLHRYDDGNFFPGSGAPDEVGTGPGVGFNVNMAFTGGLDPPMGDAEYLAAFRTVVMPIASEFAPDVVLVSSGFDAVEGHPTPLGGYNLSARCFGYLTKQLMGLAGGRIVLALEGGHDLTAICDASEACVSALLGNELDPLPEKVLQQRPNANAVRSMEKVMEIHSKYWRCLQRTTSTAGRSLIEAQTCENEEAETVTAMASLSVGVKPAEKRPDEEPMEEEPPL

The target in experiment [2] is FLAG-tagged HDAC4 p.Thr244Lys variant (human). The experiment is described as above.
Sequence of FLAG-tagged HDAC4 p.Thr244Lys variant (human) (P56524 whole entry T244K): as the sequence (P56524 whole entry E247G) above, with T244K, G247E counted along it

As to “14-3-3β (hemagglutinin [HA]-tagged) (from UniProt P31946 1-246) (natural protein)”, the fold reduction of binding compared to native HDAC4 in experiment [1] and in experiment [2] was 2 fold each time.
